In patent publication US20240417484A1, “ANTIGEN-BINDING POLYPEPTIDES AGAINST CD73” (UNIVERSITÄTSKLINIKUM HAMBURG-EPPENDORF, priority 2021, published 2024):

T1: soluble human CD73 (Homo sapiens, UniProt P21589)
T1 construct: The ectodomain of CD73 (aa 27-549) was expressed as a recombinant protein with a C-terminal His6× tag; His6 (C); made in house; host or cells: transiently transfected HEK cells
T1 sequence (P21589 27-549): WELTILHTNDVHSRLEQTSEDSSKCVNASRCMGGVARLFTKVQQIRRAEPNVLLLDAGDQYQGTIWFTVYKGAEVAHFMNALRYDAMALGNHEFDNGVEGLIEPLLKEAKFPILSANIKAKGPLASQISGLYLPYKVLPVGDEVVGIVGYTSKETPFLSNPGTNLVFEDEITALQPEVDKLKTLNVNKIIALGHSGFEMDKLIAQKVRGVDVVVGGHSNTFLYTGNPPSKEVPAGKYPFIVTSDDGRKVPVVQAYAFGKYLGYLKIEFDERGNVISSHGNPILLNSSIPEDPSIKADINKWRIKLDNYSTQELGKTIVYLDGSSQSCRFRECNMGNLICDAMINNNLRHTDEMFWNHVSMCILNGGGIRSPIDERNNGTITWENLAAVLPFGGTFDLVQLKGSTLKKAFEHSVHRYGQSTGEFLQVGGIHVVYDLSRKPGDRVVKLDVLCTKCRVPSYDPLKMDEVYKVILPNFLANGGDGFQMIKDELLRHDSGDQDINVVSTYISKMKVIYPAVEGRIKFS

T2: human CD73 (Homo sapiens, UniProt P21589)
T2 construct: expressed in transfected cells; stably transfected in method 5.1)
T2 sequence (P21589 27-549): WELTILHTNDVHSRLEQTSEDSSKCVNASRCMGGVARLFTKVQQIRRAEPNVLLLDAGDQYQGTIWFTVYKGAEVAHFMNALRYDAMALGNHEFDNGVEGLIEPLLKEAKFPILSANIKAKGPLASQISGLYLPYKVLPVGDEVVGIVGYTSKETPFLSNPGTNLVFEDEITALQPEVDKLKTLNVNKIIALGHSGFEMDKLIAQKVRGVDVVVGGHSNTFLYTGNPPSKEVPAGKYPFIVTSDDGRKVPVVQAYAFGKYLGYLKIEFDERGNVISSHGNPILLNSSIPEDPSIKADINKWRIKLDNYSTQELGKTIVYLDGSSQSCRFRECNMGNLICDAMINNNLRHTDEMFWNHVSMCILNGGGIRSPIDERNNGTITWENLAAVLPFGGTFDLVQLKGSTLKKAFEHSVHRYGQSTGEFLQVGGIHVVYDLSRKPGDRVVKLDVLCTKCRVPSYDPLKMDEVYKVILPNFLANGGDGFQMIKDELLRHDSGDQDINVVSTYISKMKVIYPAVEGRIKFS

T3: human CD73-transfected HEK cells (Homo sapiens, UniProt P21589)
T3 construct: expressed in transfected cells; stably transfected in method 5.1)
T3 sequence (P21589 27-549): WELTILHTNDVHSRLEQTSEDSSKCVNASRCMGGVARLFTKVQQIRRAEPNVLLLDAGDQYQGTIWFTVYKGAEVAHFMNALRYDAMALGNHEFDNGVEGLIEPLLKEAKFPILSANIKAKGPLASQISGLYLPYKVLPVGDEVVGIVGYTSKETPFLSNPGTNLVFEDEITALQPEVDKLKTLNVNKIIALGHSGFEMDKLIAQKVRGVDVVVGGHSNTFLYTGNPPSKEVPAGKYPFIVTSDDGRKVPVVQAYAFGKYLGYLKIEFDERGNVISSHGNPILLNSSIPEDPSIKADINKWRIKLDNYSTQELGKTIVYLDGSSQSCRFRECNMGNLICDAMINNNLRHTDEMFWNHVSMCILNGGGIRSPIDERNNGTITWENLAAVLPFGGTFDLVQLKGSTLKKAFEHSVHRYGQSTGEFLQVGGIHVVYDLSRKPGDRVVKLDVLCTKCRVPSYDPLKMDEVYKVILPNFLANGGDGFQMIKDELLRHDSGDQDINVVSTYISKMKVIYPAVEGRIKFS

T4: CD73-expressing human AML-OCI3 cells (Homo sapiens, UniProt P21589)
T4 construct: CD73-expressing human AML-OCI3 cells (AML cell line); endogenous in cells; host or cells: OCI-AML3 human AML cell line
T4 sequence (P21589 27-549): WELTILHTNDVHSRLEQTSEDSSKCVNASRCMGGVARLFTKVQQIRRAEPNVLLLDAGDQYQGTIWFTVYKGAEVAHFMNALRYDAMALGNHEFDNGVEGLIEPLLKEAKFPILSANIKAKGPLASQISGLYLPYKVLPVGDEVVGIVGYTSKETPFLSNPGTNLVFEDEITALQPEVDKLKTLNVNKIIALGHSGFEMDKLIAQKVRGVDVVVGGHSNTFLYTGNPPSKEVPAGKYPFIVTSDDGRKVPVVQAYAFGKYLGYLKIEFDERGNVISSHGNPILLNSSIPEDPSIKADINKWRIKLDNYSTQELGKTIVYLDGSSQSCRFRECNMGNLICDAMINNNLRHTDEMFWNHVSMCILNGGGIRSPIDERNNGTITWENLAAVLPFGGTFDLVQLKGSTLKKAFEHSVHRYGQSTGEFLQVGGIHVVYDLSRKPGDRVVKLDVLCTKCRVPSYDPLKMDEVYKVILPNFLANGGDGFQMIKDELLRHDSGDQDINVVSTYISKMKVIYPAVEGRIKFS


Experiments:
soluble human CD73 [1] = target: T1, soluble human CD73; assay: Off-rates of soluble CD73 from immobilized Nb-rbIgG hcAb on Octet BLI; type: binding; conditions: soluble human CD73 ectodomain 200 ng/μl as analyte; Nb-rbIgG hcAb immobilized on protein A biosensor
Procedure: The binding off-rate constants of bivalent hcAbs to human and mouse CD73 protein were determined by […] kinetic analysis on Octet RED96 (ForteBio). Immobilization of rabbit IgG hcAbs on the protein A-biosensor surface was done in HEK-6E cell supernatant, and regeneration of analytes was done with 100 mM Glycin pH=2.5. Recombinant mouse or human CD73 ectodomain was used as analytes and tested at a saturating dose of 200 ng/μl. Sensorgrams were fitted using least square regression in association than dissociation Model in Prism8 (Graphpad).

human CD73 = target: T2, human CD73; assay: Flow cytometry binding of rabbit IgG hcAbs to human CD73-transfected HEK cells; conditions: family representative clone; h = binds human CD73, m = binds mouse CD73
Procedure: HEK cells were co-transfected with expression vectors for green fluorescent protein (GFP) and human CD73, mouse CD73, and a control cell surface protein (CD39). 48 h after transfection, cells were incubated with HEK cell supernatants containing the indicated rabbit IgG hcAbs. Bound antibodies were detected with PE-conjugated anti rabbit IgG secondary antibody.
(§1) • 5.1 Untransfected HEK293 cells and HEK293 cells stably transfected with human or mouse CD73 were incubated for 30 min with HEK-6E cell supernatants containing rabbit IgG hcAbs (diluted 1:10 in PBS/0.1% BSA). Following washing with PBS/0.1% BSA, bound antibodies were detected with PE-conjugated goat anti-rabbit IgG polyclonal antibody (711-116-152 Dianova, Hamburg). • 5.2 For dissociation analyses, two separate aliquots of CD73-transfected cells were incubated either with Cell Proliferation Dye eFluor 450 (eBioscience) or with hcAbs for 20 min at RT. Cells were washed four times, mixed at a 1:1 ratio and further incubated at RT for 120 min before staining of bound antibodies with PE-conjugated goat anti-rabbit IgG polyclonal antibody. The dissociation of hcAbs from the target cells and association with the eFluor 450 labeled cells was analyzed by flow cytometry using the FlowJo software (Treestar). • 5.3 For epitope analyses, cells were preincubated with excess human IgG hcAbs (10 μl HEK-6E cell supernatant/100 μl PBS/0.1% BSA) for 30 min at RT before addition of Nb-rabbit IgG hcAbs (1 μl HEK-6E cell supernatant/100 μl PBS/0.1% BSA) and further incubation for 20 min at RT and staining with PE-conjugated anti-rabbit polyclonal antibody (711-116-152 Dianova, Hamburg). Cells were washed and analyzed by flow cytometry on a BD-FACS Canto. Data were analyzed using the FlowJo software (Treestar).
The binding specificities of the purified hcAbs were determined by flow cytometry using HEK cells transiently co-transfected with expression vectors for GFP and either mouse CD73, human CD73 or a control protein (CD39). 1×10^6 cells were incubated with 10 μl of the Nb-rbIgG hcAb containing HEK-6E cell supernatants for 30 min at 4° C. After washing, the cells were incubated with PE-conjugated anti-rabbit IgG polyclonal antibody (711-116-152 Dianova, Hamburg) and washed twice. The cells were resuspended in PBS and analyzed by flow cytometry on FACS Canto or FACS Celesta (BD Biosciences, Heidelberg). Data evaluation was conducted using the software FlowJo (Treestar, Stanford, US).

[2] = target: T3, human CD73-transfected HEK cells; assay: Epitope binning by flow cytometry (human IgG hcAb blocks rabbit IgG hcAb); type: binding; conditions: epitope assignment on human CD73 from binning
Procedure: as §1
To evaluate the epitopes on the CD73 protein recognized by different VHHs, representative rabbit IgG hcAbs were binned against a set of human IgG hcAbs, and bound hcAbs were detected with a PE-conjugated anti-rabbit IgG secondary antibody. Cells were pre-incubated with excess human IgG hcAbs for […] at RT to block specific epitopes before addition of rabbit IgG hcAbs as detectors and further incubation for 15 min at RT. Cells were washed, and bound antibodies were detected with PE-conjugated anti-rabbit IgG polyclonal antibody. Cells were washed and analyzed by flow cytometry on a BD-FACS Canto. Data were analyzed using the FlowJo software (Treestar). Lack of blockade by a non-binding control human IgG hcAb served as negative control (unblocked), and blockade of binding with the same VHH carrying human IgG hcAb as the rabbit IgG hcAb used for detection served as positive controls for blocking. Values for blocking were determined by comparing the mean fluorescence intensities (MFIs) of PE staining of transfected cells for unblocked vs blocked rabbit hcAbs using the formula: inhibition (%)=100−(MFI (blocked)/MFI MFI(unblocked)*100). The values were rounded to whole percentages.

soluble human CD73 [3] = target: T1, soluble human CD73; assay: AMP hydrolysis by soluble CD73, DPEA-Napht-Azide fluorescence assay; type: biochemical; conditions: 50 ng CD73, 30 min pre-incubation with 10 μl hcAb supernatant, 1 mM AMP
Procedure: Recombinant human CD73 (50 ng) was pre-incubated for 30 min with hcAbs at RT in 96 well plates before addition of AMP and DPEA-Napht-Azide. Fluorescence signals were detected every 50 seconds for 30 repeats. ARFU values (>10^3/min) were calculated for a 10 min interval during the linear phase (from 5 min to 15 min) using Prism software (Graphpad). A non-specific rabbit IgG hcAb was used as control.
• 4.1 CD73 catalyzes the hydrolysis of AMP to adenosine. This reaction can be monitored by the shift in fluorescence intensity of DPEA-Napht-Azide. This property was used to determine whether hcAbs could interfere with the enzymatic activity of CD73. Soluble recombinant human CD73 (50 ng) was pre-incubated for 30 min with Nbs or hcAbs (10 μl HEK-6E cell supernatant containing 10-100 μg/ml hcAb) at RT in 96 well plates before addition of AMP (Sigma) to a final concentration of 1 mM and of DPEA-Napht-Azide to a final concentration of 50 μM. • 4.2 Fluorescence signals were recorded in white Nunc MicroWell plates (Nunc, 136101) on a Victor III plate reader (Perkin Elmer) (Exicitation filter: F485, Emission Filter: F535; CW-Lamp energy: 40000, counting time: 0.1 s). Data analyses were performed using Prism (Graphpad).
Soluble recombinant human CD73 (50 ng) was pre-incubated for 30 min with CD73-specific hcAbs or an irrelevant control hcAb (10 μl HEK-6E cell supernatant) at RT in 96 well plates before addition of AMP (Sigma) to a final concentration of 1 mM and of DPEA-Napht-Azide to a final concentration of 50 μM. Fluorescence signals were detected every 50 seconds for 30 repeats. Data analyses were performed using Prism (Graphpad).

[4] = target: T4, CD73-expressing human AML-OCI3 cells; assay: AMP degradation by cell bound CD73, luminometric AMPglow assay; type: cell-based; conditions: AML-OCI3 cells; 10 μl supernatant of single clone or 5+5 μl of two clones
Procedure: AMP was added and AMP degradation was measured using the luminometric AMPglow assay. Data analyses were performed using Prism (Graphpad).
Soluble recombinant human CD73 or CD73-expressing human […] cells were incubated with CD73-specific dimeric clones SB116-rbFc, SB188-rbFc, biparatopic SB116-188-Alb trimers or with non-binding L-10e-rbFc clone (control). AMP was added and AMP degradation was measured using the luminometric AMPglow assay. Data analyses were performed using Prism (Graphpad).

| Kdis (soluble human CD73 [1]) [s⁻¹] | specificity (human CD73) | Epitope [2] | inhibition of AMP degradation [4] | Molecule | effect on hydrolysis of AMP by soluble CD73 (soluble human CD73 [3]) |
| --- | --- | --- | --- | --- | --- |
| 0.00017 | h + m | 1 | – | SB116: CD73-specific alpaca VHH clone, family 3, SEQ ID NO:81; tested as rabbit or human IgG hcAb (antibody, left off: a dimerising Fc or GST, tested as rabbit or human IgG hcAb) heavy: QVKLQESGGGRVQTGGSLRLSCAASGISFSITTMYWYRQAPGEQRQLVALITDRGNTYYVDSVKGRFTISRDDSKNTVYLQMNDLKPEDTAVYFCNSIPGNDWGQGTQVTVSS | effectively blocked hydrolysis of AMP |
| 0.0013 | – | 1 | pronounced inhibition of AMP degradation | SB143: CD73-specific alpaca VHH clone, family 4 in Tables 1-3, SEQ ID NO:69; tested as rabbit or human IgG hcAb (antibody, left off: a dimerising Fc or GST, tested as rabbit or human IgG hcAb) heavy: QVQLVESGGGLVQAGGSLRLSCAASGRTFSRSTMGWFRQAPGKERVFVAAIRWIGGTTTYGDSVKGRFTISVDNAKNTLYLQMNSLKPEDTAVYYCAATAGGPYYLGGRDILYDYWGQGTQVTVSS | inhibited CD73 catalyzed hydrolysis of AMP |
| 0.00023 | h + m | – | pronounced inhibition of AMP degradation | SB144: CD73-specific alpaca VHH clone, family 4 in Tables 1-2, SEQ ID NO:70; tested as rabbit IgG hcAb (antibody, left off: a dimerising Fc or GST, tested as rabbit IgG hcAb) heavy: QVQLVESGGGLVQAGGSLRLSCAASGRTFSGSTMGWFRQAPGKERAFVAAIRWIGGTAKYGDSVKGRFTISIDNAKNTLYLQMNSLKPEDTAVYYCAATAGGPDYLGGRDIVYDYWGQGTQVTVSS | inhibited CD73 catalyzed hydrolysis of AMP |
